Test system: Cn1c(=O)ccc2ccc(F)c(CCNC[C@H]3CN(c4cnc5c(n4)NC(=O)CO5)C(=O)O3)c21
Assay: MATE2-K transport in HEK293 cells
Format: in vitro ADME, human
Conditions: other: HEK293 cells; 37.0 °C

MATE2-K (Homo sapiens)
Km: 469 µM | Vmax: 111 pmol/mg/min
